Holding throughout (format): cell-based
For experiment [1], the system named is RAJI cells. Description: JNG assay, co-culture with RAJI cells. Conditions: JNG cells expressing construct, co-culture with Raji. In outline:
(§1)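 Jurkat NFAT-GFP (JNG) cells stably transduced with SARs by lentivirus, with drug selection where the construct carried a resistance gene, then co-cultured with target cells at E:T ~1:2 for ~4–18 h. % GFP-positive cells measured by FACS against parental JNG; +/- to 5+ correspond to ~5–50% GFP-positive.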

The subject of experiment [2] is L363 cells. Description: JNG assay, co-culture with L363 cells. To be noted: co-culture with L363. In outline:
as §1

Experiment [3] has as its system Nalm6 cells. As to the kind of experiment: JNG assay, co-culture with Nalm6 cells. Conditions: co-culture with Nalm6. Put shortly: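 Scoring uses % GFP+ reporter cells above the parental control, where +/-, +, 2+, 3+, 4+ and 5+ correspond to about 5, 10, 20, 30, 40 and 50%. Effectors were SAR-expressing Jurkat NFAT-GFP cells cocultured with targets (E:T ~1:2, ~4–18 h).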

In experiment [4] the test system is RS;411. Description: JNG assay, co-culture with RS;411 cells. Conditions: co-culture with RS411. In outline:
as §1

The subject of experiment [5] is RAJI-CD19-KO cells. As to the kind of experiment: JNG assay, co-culture with RAJI-CD19-KO cells. To be noted: co-culture with Raji-CD19-KO. Put shortly: as §1

B1: 22226 (protein)
chain: MALPVTALLLPLALLLHAARPACEVQLLESGGGLIQPGGSLRLSCAASGFTFSSHAMTWVRQAPGKGLEWVSAISGSGDYTHYADSVKGRFTISRDNSKNTVYLQMNSLRAEDSAVYYCAKDEDGGSLLGHRGQGTLVTVSSGTGPQGIFGQPGYINEFDIQMTQSPSSLSASVGDRVTITCKASDHINNWLAWYQQKPGQAPKLLIYGATTLETGVPSRFSGSGSGTDYTLTISSLQPEDFATYYCQQSWNTPWTFGQGTKLEIKRLEDLKNVFPPEVAVFEPSKAEIAHTQKATLVCLATGFYPDHVELSWWVNGKEVHSGVCTDPQPLKEQPALNDSRYCLSSRLRVSATFWQNPRNHFRCQVQFYGLSENDEWTQDRAKPVTQIVSAEAWGRADCGITSASYHQGVLSATILYEILLGKATLYAVLVSALVLMAMVKRKDSRGRAKRSGSGATNFSLLKQAGDVEENPGPTSATMDWIWRILFLVGAATGAHSGPEVQLVESGGGLVQAGGSLRLSCAASGRTFSMGWFRQAPGKEREFVAAITYSGGSPYYADSVKGRFTISRDNAKNTVYLQMNSLKPEDTAVYYCAANPTYGSDWNAENWGQGTQVTVSSGSGGGGSGGGGSGGGGSFEQVQLQQPGAELVKPGASVKMSCKASGYAFSSYWINWMKQKPGQGLEWIGQIYPGDGDTNYNGKFKGRATLTADTSSSTAYMQLSSLTSEDSAVYFCARSITTVVGCAMDYWGQGTSVTVSSTRIQNPDPAVYQLRDSKSSDKSVCLFTDFDSQTNVSQSKDSDVYITDKCVLDMRSMDFKSNSAVAWSNKSDFACANAFNNSIIPEDTFFPSPESSCDVKLVEKSFETDTNLNFQNLSVIGFRILLLKVAGFNLLMTLRLWSSRAKRSGSGVKQTLNFDLLKLAGDVESNPGPSRGHMTEYKPTVRLATRDDVPRAVRTLAAAFADYPATRHTVDPDRHIERVTELQELFLTRVGLDIGKVWVADDGAAVAVWTTPESVEAGAVFAEIGPRMAELSGSRLAAQQQMEGLLAPHRPKEPAWFLATVGVSPDHQGKGLGSAVVLPGVEAAERAGVPAFLETSAPRNLPFYERLGFTVTADVEVPEGPRTWCMTRKPGA
With B1, in experiment [1], the “NFAT-GFP ASSAY: Raji” value is “+/- (refer to approximately 5%, 10%, 20%, 30%, 40% and 50% GFP positive cells)”. Moreover, the “NFAT-GFP ASSAY: L363” value in experiment [2] is “+ (refer to approximately 5%, 10%, 20%, 30%, 40% and 50% GFP positive cells)”. Besides, the “NFAT-GFP ASSAY: Nalm6” value in experiment [3] is “+ (refer to approximately 5%, 10%, 20%, 30%, 40% and 50% GFP positive cells)”. In addition, the “NFAT-GFP ASSAY: RS411” value in experiment [4] is “+/- (refer to approximately 5%, 10%, 20%, 30%, 40% and 50% GFP positive cells)”.

B2: 22068 (protein)
chain: MALPVTALLLPLALLLHAARPQLQLQESGPGLVKPSETLSLTCTVSGDSISSGDYYWGWIRQPPGKGLEWIGHIYYSGVTYYNPSLKSRVTISVDTSRNQFSLKLSSVTAADTAVYYCTREDSSNWRSRGQGTLVTVSSLEGGGGSGGGGSGGGGSVEDLKNVFPPEVAVFEPSKAEIAHTQKATLVCLATGFYPDHVELSWWVNGKEVHSGVCTDPQPLKEQPALNDSRYCLSSRLRVSATFWQNPRNHFRCQVQFYGLSENDEWTQDRAKPVTQIVSAEAWGRADCGITSASYHQGVLSATILYEILLGKATLYAVLVSALVLMAMVKRKDSRGRAKRSGSGATNFSLLKQAGDVEENPGPTSMDWIWRILFLVGAATGAHSFEVQLLESGGGLIQPGGSLRLSCAASGFTFSSHAMTWVRQAPGKGLEWVSAISGSGDYTHYADSVKGRFTISRDNSKNTVYLQMNSLRAEDSAVYYCAKDEDGGSLLGHRGQGTLVTVSSTRIQNPDPAVYQLRDSKSSDKSVCLFTDFDSQTNVSQSKDSDVYITDKCVLDMRSMDFKSNSAVAWSNKSDFACANAFNNSIIPEDTFFPSPESSCDVKLVEKSFETDTNLNFQNLSVIGFRILLLKVAGFNLLMTLRLWSSRAKRSGSGVKQTLNFDLLKLAGDVESNPGPSRGHMTEYKPTVRLATRDDVPRAVRTLAAAFADYPATRHTVDPDRHIERVTELQELFLTRVGLDIGKVWVADDGAAVAVWTTPESVEAGAVFAEIGPRMAELSGSRLAAQQQMEGLLAPHRPKEPAWFLATVGVSPDHQGKGLGSAVVLPGVEAAERAGVPAFLETSAPRNLPFYERLGFTVTADVEVPEGPRTWCMTRKPGA
As for B2, the “NFAT-GFP ASSAY: Raji” value in experiment [1] is “+ (refer to approximately 5%, 10%, 20%, 30%, 40% and 50% GFP positive cells)”. The “NFAT-GFP ASSAY: L363” value in experiment [2] is “+ (refer to approximately 5%, 10%, 20%, 30%, 40% and 50% GFP positive cells)”. Also, in experiment [3], the “NFAT-GFP ASSAY: Nalm6” value was “+/- (refer to approximately 5%, 10%, 20%, 30%, 40% and 50% GFP positive cells)”. Further, in experiment [4], the “NFAT-GFP ASSAY: RS411” value is “+/- (refer to approximately 5%, 10%, 20%, 30%, 40% and 50% GFP positive cells)”.

B3: 22114 (protein)
chain: MALPVTALLLPLALLLHAARPDIQMTQSPSSLSASVGDRVTITCKASDHINNWLAWYQQKPGQAPKLLIYGATTLETGVPSRFSGSGSGTDYTLTISSLQPEDFATYYCQQSWNTPWTFGQGTKLEIKRLEIQNPDPAVYQLRDSKSSDKSVCLFTDFDSQTNVSQSKDSDVYITDKCVLDMRSMDFKSNSAVAWSNKSDFACANAFNNSIIPEDTFFPSSDVPCDVKLVEKSFETDTNLNFQNLSVIGFRILLLKVAGFNLLMTLRLWSSRAKRSGSGVKQTLNFDLLKLAGDVESNPGPTSATMDWIWRILFLVGAATGAHSGPQVQLQESGGGLAQAGGSLRLSCAASGRTFSMGWFRQAPGKEREFVAAITYSGGSPYYASSVRGRFTISRDNAKNTVYLQMNSLKPEDTAVYYCAANPTYGSDWNAENWGQGTQVTVSSGSGGGGSGGGGSGGGGSFEQVQLQQPGAELVKPGASVKMSCKASGYAFSSYWINWMKQKPGQGLEWIGQIYPGDGDTNYNGKFKGRATLTADTSSSTAYMQLSSLTSEDSAVYFCARSITTVVGCAMDYWGQGTSVTVSSTREDLKNVFPPEVAVFEPSKAEIAHTQKATLVCLATGFYPDHVELSWWVNGKEVHSGVCTDPQPLKEQPALNDSRYCLSSRLRVSATFWQNPRNHFRCQVQFYGLSENDEWTQDRAKPVTQIVSAEAWGRADCGITSASYHQGVLSATILYEILLGKATLYAVLVSALVLMAMVKRKDSRGRAKRSGSGATNFSLLKQAGDVEENPGPSRGHMTEYKPTVRLATRDDVPRAVRTLAAAFADYPATRHTVDPDRHIERVTELQELFLTRVGLDIGKVWVADDGAAVAVWTTPESVEAGAVFAEIGPRMAELSGSRLAAQQQMEGLLAPHRPKEPAWFLATVGVSPDHQGKGLGSAVVLPGVEAAERAGVPAFLETSAPRNLPFYERLGFTVTADVEVPEGPRTWCMTRKPGA
On to B3, for which the “NFAT-GFP ASSAY: Raji-CD19-KO” value in experiment [5] was 5+ (refer to approximately 5%, 10%, 20%, 30%, 40% and 50% GFP positive cells). The “NFAT-GFP ASSAY: RS411” value in experiment [4] is 5+ (refer to approximately 5%, 10%, 20%, 30%, 40% and 50% GFP positive cells).

Values taken from patent US20230212319A1, “NOVEL ANTIGEN BINDING DOMAINS AND SYNTHETIC ANTIGEN RECEPTORS INCORPORATING THE SAME” (University of Southern California, priority 2020, published 2023).
